The results in this text go back to patent publication US7657380.

Test [1] concerns the target T1, EGFR extracellular domain (R&D Systems) (UniProt P00533 25-645, limits assumed). The experiment in a line: SPR, Fab over EGFR ECD on CM5 chip. A general note: Surface plasmon resonance follows binding to a sensor surface in real time, without labels.
The target in test [2] is T1, EGFR extracellular domain (R&D Systems). The experiment in a line: SPR, full length antibody over EGFR chip.

B1: C225 L2/H3 Fab (Fab, V domains shown)
VH: QVQLQQSGPGLVKPSQTLSLTCTVSGFSLTNYGVHWVRQAPGKGLEWLGVIWSGGNTDYNTSLKSRLTISKDNSKSQVVLQMNSLRAEDTAVYYCARALTYYDYEFAYWGQGTLVTVSS
VL: DILLTQSPATLSLSPGERVTLSCRASQSIGTNIHWYQQKPDQSPKLLIKYASESISGIPSRFSGSGSGTDFTLTISSLQPEDFADYYCQQNNNWPTTFGAGTKLEIK
With B1, in test [1], the Kd turned out to be 192 nM, the koff was 0.00535 s⁻¹ and the kon worked out at 27900 M⁻¹ s⁻¹.

B2: C225 L3/H6 full length antibody (antibody, IgG1, V domains shown)
VH: QVQLQQSGPGLVKPSQTLSLTCTVSGFSLTNYGVHWVRQAPGKGLEWVGVIWSGGNTDYNTSVKGRFTISKDNSKSQVYLQMNSLRAEDTAVYYCARALTYYDYEFAYWGQGTLVTVSS
VL: DILLTQSPSSLSASVGDRVTITCRASQSIGTNIHWYQQKPDQSPKLLIKYASESISGIPSRFSGSGSGTDFTLTISSLQAEDVAVYYCQQNNNWPTTFGAGTKLEIK
As to B2, the binding result in test [2] is reported as “binds”.

B3: C225 L3/H4 full length antibody (antibody, IgG1, V domains shown)
VH: QVQLQQSGPGLVKPSQTLSLTCTVSGFSLTNYGVHWVRQAPGKGLEWLGVIWSGGNTDYNTSLKSRLTISKDNSKSQVVLTMTNMDPVDTATYYCARALTYYDYEFAYWGQGTLVTVSS
VL: DILLTQSPSSLSASVGDRVTITCRASQSIGTNIHWYQQKPDQSPKLLIKYASESISGIPSRFSGSGSGTDFTLTISSLQAEDVAVYYCQQNNNWPTTFGAGTKLEIK
Take B3: in test [2], the binding result is given as “binds”.

B4: C225 L4/H4 full length antibody (antibody, IgG1, V domains shown)
VH: QVQLQQSGPGLVKPSQTLSLTCTVSGFSLTNYGVHWVRQAPGKGLEWLGVIWSGGNTDYNTSLKSRLTISKDNSKSQVVLTMTNMDPVDTATYYCARALTYYDYEFAYWGQGTLVTVSS
VL: DILLTQSPAFLSVTPGEKVTITCRASQSIGTNIHWYQQKPDQSPKLLIKYASESISGIPSRFSGSGSGTDFTLTINSLEAEDAATYYCQQNNNWPTTFGAGTKLEIK
In the case of B4, in test [2], the binding result is “binds”.

B5: C225 L4/H5 full length antibody (antibody, IgG1, V domains shown)
VH: QVQLQQSGPGLVKPSQTLSLTCTVSGFSLTNYGVHWVRQAPGKGLEWLGVIWSGGNTDYNTPLTSRLTINKDNSKSQVVLQMNSLRAEDTAVYYCARALTYYDYEFAYWGQGTLVTVSS
VL: DILLTQSPAFLSVTPGEKVTITCRASQSIGTNIHWYQQKPDQSPKLLIKYASESISGIPSRFSGSGSGTDFTLTINSLEAEDAATYYCQQNNNWPTTFGAGTKLEIK
Consider B5, for which the binding result in test [2] is recorded as “binds”.

B6: C225 L0/H3 full length antibody (antibody, IgG1, V domains shown)
VH: QVQLQQSGPGLVKPSQTLSLTCTVSGFSLTNYGVHWVRQAPGKGLEWLGVIWSGGNTDYNTSLKSRLTISKDNSKSQVVLQMNSLRAEDTAVYYCARALTYYDYEFAYWGQGTLVTVSS
VL: not shown
As to B6, the binding result in test [2] is on record as “binds”.

B7: C225 L3/H7 full length antibody (antibody, IgG1, V domains shown)
VH: QVQLQQSGPGLVKPSQTLSLTCTVSGFSLTNYGVHWVRQPPGKGLEWIGVIWSGGNTDYNTSLKSRVTISKDNSKSQVSLKLSSVTAADTAVYYCARALTYYDYEFAYWGQGTLVTVSS
VL: DILLTQSPSSLSASVGDRVTITCRASQSIGTNIHWYQQKPDQSPKLLIKYASESISGIPSRFSGSGSGTDFTLTISSLQAEDVAVYYCQQNNNWPTTFGAGTKLEIK
With B7, the binding result in test [2] was “binds”.

B8: C225 L4/H6 full length antibody (antibody, IgG1, V domains shown)
VH: QVQLQQSGPGLVKPSQTLSLTCTVSGFSLTNYGVHWVRQAPGKGLEWVGVIWSGGNTDYNTSVKGRFTISKDNSKSQVYLQMNSLRAEDTAVYYCARALTYYDYEFAYWGQGTLVTVSS
VL: DILLTQSPAFLSVTPGEKVTITCRASQSIGTNIHWYQQKPDQSPKLLIKYASESISGIPSRFSGSGSGTDFTLTINSLEAEDAATYYCQQNNNWPTTFGAGTKLEIK
On to B8, for which the binding result in test [2] is reported as “binds”.

B9: C225 L2/H8 full length antibody (antibody, IgG1, V domains shown)
VH: QVQLVESGGGLVQPGRSLRLSCAVSGFSLTNYGVHWVRQAPGKGLEWVSVIWSGGNTDYNTSVKGRFTISKDNSKSTVYLQMNSLRAEDTAVYYCARALTYYDYEFAYWGQGTLVTVSS
VL: DILLTQSPATLSLSPGERVTLSCRASQSIGTNIHWYQQKPDQSPKLLIKYASESISGIPSRFSGSGSGTDFTLTISSLQPEDFADYYCQQNNNWPTTFGAGTKLEIK
As to B9, the binding result in test [2] is given as “binds”.

B10: C225 L3/H5 full length antibody (antibody, IgG1, V domains shown)
VH: QVQLQQSGPGLVKPSQTLSLTCTVSGFSLTNYGVHWVRQAPGKGLEWLGVIWSGGNTDYNTPLTSRLTINKDNSKSQVVLQMNSLRAEDTAVYYCARALTYYDYEFAYWGQGTLVTVSS
VL: DILLTQSPSSLSASVGDRVTITCRASQSIGTNIHWYQQKPDQSPKLLIKYASESISGIPSRFSGSGSGTDFTLTISSLQAEDVAVYYCQQNNNWPTTFGAGTKLEIK
Consider B10, for which the binding result in test [2] is given as “binds”.

B11: C225 L3/H8 full length antibody (antibody, IgG1, V domains shown)
VH: QVQLVESGGGLVQPGRSLRLSCAVSGFSLTNYGVHWVRQAPGKGLEWVSVIWSGGNTDYNTSVKGRFTISKDNSKSTVYLQMNSLRAEDTAVYYCARALTYYDYEFAYWGQGTLVTVSS
VL: DILLTQSPSSLSASVGDRVTITCRASQSIGTNIHWYQQKPDQSPKLLIKYASESISGIPSRFSGSGSGTDFTLTISSLQAEDVAVYYCQQNNNWPTTFGAGTKLEIK
With B11, the binding result in test [2] was “binds”.

B12: C225 L4/H7 full length antibody (antibody, IgG1, V domains shown)
VH: QVQLQQSGPGLVKPSQTLSLTCTVSGFSLTNYGVHWVRQPPGKGLEWIGVIWSGGNTDYNTSLKSRVTISKDNSKSQVSLKLSSVTAADTAVYYCARALTYYDYEFAYWGQGTLVTVSS
VL: DILLTQSPAFLSVTPGEKVTITCRASQSIGTNIHWYQQKPDQSPKLLIKYASESISGIPSRFSGSGSGTDFTLTINSLEAEDAATYYCQQNNNWPTTFGAGTKLEIK
B12: the binding result in test [2] is “binds”.

B13: C225 L2/H6 full length antibody (antibody, IgG1, V domains shown)
VH: QVQLQQSGPGLVKPSQTLSLTCTVSGFSLTNYGVHWVRQAPGKGLEWVGVIWSGGNTDYNTSVKGRFTISKDNSKSQVYLQMNSLRAEDTAVYYCARALTYYDYEFAYWGQGTLVTVSS
VL: DILLTQSPATLSLSPGERVTLSCRASQSIGTNIHWYQQKPDQSPKLLIKYASESISGIPSRFSGSGSGTDFTLTISSLQPEDFADYYCQQNNNWPTTFGAGTKLEIK
In the case of B13, in test [2], the binding result is “binds”.

B14: C225 L3/H3 full length antibody (antibody, IgG1, V domains shown)
VH: QVQLQQSGPGLVKPSQTLSLTCTVSGFSLTNYGVHWVRQAPGKGLEWLGVIWSGGNTDYNTSLKSRLTISKDNSKSQVVLQMNSLRAEDTAVYYCARALTYYDYEFAYWGQGTLVTVSS
VL: DILLTQSPSSLSASVGDRVTITCRASQSIGTNIHWYQQKPDQSPKLLIKYASESISGIPSRFSGSGSGTDFTLTISSLQAEDVAVYYCQQNNNWPTTFGAGTKLEIK
As for B14, in test [2], the binding result is given as “binds”.

B15: C225 L2/H7 full length antibody (antibody, IgG1, V domains shown)
VH: QVQLQQSGPGLVKPSQTLSLTCTVSGFSLTNYGVHWVRQPPGKGLEWIGVIWSGGNTDYNTSLKSRVTISKDNSKSQVSLKLSSVTAADTAVYYCARALTYYDYEFAYWGQGTLVTVSS
VL: DILLTQSPATLSLSPGERVTLSCRASQSIGTNIHWYQQKPDQSPKLLIKYASESISGIPSRFSGSGSGTDFTLTISSLQPEDFADYYCQQNNNWPTTFGAGTKLEIK
As to B15, the binding result in test [2] is listed as “binds”.

B16: C225 L0/H4 full length antibody (antibody, IgG1, V domains shown)
VH: QVQLQQSGPGLVKPSQTLSLTCTVSGFSLTNYGVHWVRQAPGKGLEWLGVIWSGGNTDYNTSLKSRLTISKDNSKSQVVLTMTNMDPVDTATYYCARALTYYDYEFAYWGQGTLVTVSS
VL: not shown
In the case of B16, in test [2], the binding result is listed as “binds”.

B17: C225 L0/H6 full length antibody (antibody, IgG1, V domains shown)
VH: QVQLQQSGPGLVKPSQTLSLTCTVSGFSLTNYGVHWVRQAPGKGLEWVGVIWSGGNTDYNTSVKGRFTISKDNSKSQVYLQMNSLRAEDTAVYYCARALTYYDYEFAYWGQGTLVTVSS
VL: not shown
On to B17, for which, in test [2], the binding result is on record as “binds”.

B18: C225 L4/H3 full length antibody (antibody, IgG1, V domains shown)
VH: QVQLQQSGPGLVKPSQTLSLTCTVSGFSLTNYGVHWVRQAPGKGLEWLGVIWSGGNTDYNTSLKSRLTISKDNSKSQVVLQMNSLRAEDTAVYYCARALTYYDYEFAYWGQGTLVTVSS
VL: DILLTQSPAFLSVTPGEKVTITCRASQSIGTNIHWYQQKPDQSPKLLIKYASESISGIPSRFSGSGSGTDFTLTINSLEAEDAATYYCQQNNNWPTTFGAGTKLEIK
For B18, the binding result in test [2] is “binds”.

B19: C225 L0/H5 full length antibody (antibody, IgG1, V domains shown)
VH: QVQLQQSGPGLVKPSQTLSLTCTVSGFSLTNYGVHWVRQAPGKGLEWLGVIWSGGNTDYNTPLTSRLTINKDNSKSQVVLQMNSLRAEDTAVYYCARALTYYDYEFAYWGQGTLVTVSS
VL: not shown
Regarding B19, the binding result in test [2] is reported as “binds”.

B20: C225 L2/H5 full length antibody (antibody, IgG1, V domains shown)
VH: QVQLQQSGPGLVKPSQTLSLTCTVSGFSLTNYGVHWVRQAPGKGLEWLGVIWSGGNTDYNTPLTSRLTINKDNSKSQVVLQMNSLRAEDTAVYYCARALTYYDYEFAYWGQGTLVTVSS
VL: DILLTQSPATLSLSPGERVTLSCRASQSIGTNIHWYQQKPDQSPKLLIKYASESISGIPSRFSGSGSGTDFTLTISSLQPEDFADYYCQQNNNWPTTFGAGTKLEIK
B20: in test [2], the binding result is recorded as “binds”.

B21: C225 L0/H7 full length antibody (antibody, IgG1, V domains shown)
VH: QVQLQQSGPGLVKPSQTLSLTCTVSGFSLTNYGVHWVRQPPGKGLEWIGVIWSGGNTDYNTSLKSRVTISKDNSKSQVSLKLSSVTAADTAVYYCARALTYYDYEFAYWGQGTLVTVSS
VL: not shown
Turning to B21, in test [2], the binding result is “binds”.

B22: C225 L0/H8 full length antibody (antibody, IgG1, V domains shown)
VH: QVQLVESGGGLVQPGRSLRLSCAVSGFSLTNYGVHWVRQAPGKGLEWVSVIWSGGNTDYNTSVKGRFTISKDNSKSTVYLQMNSLRAEDTAVYYCARALTYYDYEFAYWGQGTLVTVSS
VL: not shown
For the molecule B22, in test [2], the binding result is “binds”.

B23: C225 L4/H8 full length antibody (antibody, IgG1, V domains shown)
VH: QVQLVESGGGLVQPGRSLRLSCAVSGFSLTNYGVHWVRQAPGKGLEWVSVIWSGGNTDYNTSVKGRFTISKDNSKSTVYLQMNSLRAEDTAVYYCARALTYYDYEFAYWGQGTLVTVSS
VL: DILLTQSPAFLSVTPGEKVTITCRASQSIGTNIHWYQQKPDQSPKLLIKYASESISGIPSRFSGSGSGTDFTLTINSLEAEDAATYYCQQNNNWPTTFGAGTKLEIK
Turning to B23, in test [2], the binding result is reported as “binds”.

The Kd is the concentration at which binding is half-saturated. Low readings indicate tighter binding, high ones weaker binding. As usually defined, the koff is a measure of how fast the partners let go of each other. Lower therefore signals slow dissociation. Broadly, the kon is the rate constant with which the complex forms. Higher therefore signals faster complex formation.
